# “Also recorded” adds a separate entry of the source.
# Experiments:
# [1] = Self-assembly of peptides into hydrogel at physiologic pH and osmolarity; assay type: physicochemical; conditions: for self-assembly into a hydrogel when mixed with peptide hydrogel R: mixed with R at a 1:10 ratio; for self-assemble at physiologic pH and osmolarity: peptide alone; for Self-Assembly: peptide alone at 1 % w/v
# Text: JAG-1 (CDDYYYGFGCNKFCRPR)(SEQ ID NO: 1) can be incorporated into the self-assembling peptides to generate bioactive scaffolds with the potential to regulate Notch signaling in a ligand density dependent manner. The self-assembling sequence RADA (or R) (RARADADARARADADA)(SEQ ID NO: 2) with a 7 glycine linker following the terminal alanine is followed by the active sequence of the Notch ligand Jagged-1 (JAG-1) to create the fusion peptide (RJ). As a control, the JAG-1 portion may be replaced with the scrambled sequence (RCGPDCFDNYGRYKYCF)(SEQ ID NO:4) (RS) with no known cell surface binding site can be used as a control to check for the specificity of JAG 1 in activating Notch-1 signaling. […] These peptide scaffolds self-assemble at physiological pH and osmolarity (in 295 mM sucrose solution) into nanofiber hydrogels. After synthesis, the peptides can be purified by high pressure liquid chromatography on reverse-phase columns. Purity can be assessed by HPLC and the presence of a correct composition by amino acid analysis.
# The self-assembling peptide (R) and the peptides with Jag-1 (RJ) or scrambled (RS) attached are weighed out to create hydrogels of 1-3% w/v, i.e., hydrogels with varying % concentration from 1 to 3% w/v peptide wherein R is combined with RJ or RS in a ratio of 1:10.
# A sucrose solution (295 mM) is added to the peptides and sonicated. The RJ or RS peptide solutions are mixed with the R solution at 1:10 and allowed to form the hydrogel. The time required to form the hydrogel depends on the concentration of the gel. In certain embodiments, the disclosure relates to the synthesis of self assembling peptides which contain the active ligand JAG-1 attached to it. This enables easy dose manipulation of JAG-1 to achieve Notch-1 activation.
# [2] = Atomic force microscopy measurement of Young's modulus of hydrogels; assay type: physicochemical; conditions: in comparison with unmodified hydrogels at both 1 and 2% w/v
# Method: (§1) Peptides have been created containing a ligand for Notch-1 activation that self assembles into a hydrogel. For determination of swelling ratio, the hydrogels were created in a […] total volume and allowed to swell in 295 mM sucrose solution. After 24 h, the wet weight of the gels was measured. The gels were then lyophilized and the dry weight noted. Swelling ratio was calculated as the (wet weight−dry weight)/wet weight. […] The average Young's modulus for 1% and 2% hydrogels was 500 Pa and 1800 Pa respectively (FIG. 1A).
# Cardiac progenitor cells (CPCs) were isolated from 2 month old male Sprague Dawley rats by digesting the heart with Collagenase followed by magnetic sorting for cKit positive cells. The CPCs were cultured on Ham's F12 supplemented with FBS, LIF, bFGF, L-Glutamine and antibiotics. Single cell cloning was performed by limiting dilution to obtain CPCs with >90% expression of cKit and the cardiac transcription factors nkx2-5 and gata-4. […] The Young's modulus of the hydrogels was determined using an MFP-3DBIO atomic force microscope (Asylum Research; Santa Barbara, Calif.), with a 4.74 μm diameter bead tippedsilicon nitride cantilever.
# [3] = system: Notch1; assay: Notch1 activation in CHO cells with Notch1-responsive YFP expression, 3D culture in hydrogels; assay type: cell-based; conditions: 48 h
# Method: (§2) CHO cells with Notch1-responsive YFP expression were cultured in media containing 20 or 40 μm R, RS or RJ for 48 h. […] These cells were also cultured in 3D in 1-3% w/v hydrogels composed of R, RS or RJ for 48 h.
# [4] = Swelling ratio of hydrogels; assay type: physicochemical; conditions: n=3
# Method: as §1
# [5] = system: embryoid bodies (EBs) from mouse embryonic stem cells; assay: qPCR gene expression of mouse embryoid bodies cultured in 1% hydrogels; assay type: cell-based; conditions: mouse EBs in 1% hydrogels
# Method: To determine if gene expression changes in response to hydrogel-mediated Notch1 activation were conserved between stem/progenitor cells, day 2 embryoid bodies (EBs) from mouse embryonic stem cells were cultured in low concentration (1%) hydrogels for 48 h.
# [6] = system: Notch1; assay: Notch1 activation in CHO cells with Notch1-responsive YFP expression, 2D culture with peptide in media; assay type: cell-based; conditions: media containing peptide at 40 μm, 48 h
# Method: as §2
# [7] = system: Cardiac progenitor cells (CPCs); assay: qPCR gene expression of CPCs cultured in hydrogels; assay type: cell-based, rat; conditions: 48 h
# Method: Cardiac progenitor cells (CPCs) were isolated from 2 month old male Sprague Dawley rats by digesting the heart with Collagenase followed by magnetic sorting for cKit positive cells. The CPCs were cultured on Ham's F12 supplemented with FBS, LIF, bFGF, L-Glutamine and antibiotics. Single cell cloning was performed by limiting dilution to obtain CPCs with >90% expression of cKit and the cardiac transcription factors nkx2-5 and gata-4. CPCs were cultured in self assembling hydrogels of various concentrations (1-3% w/v) with either empty, scrambled or JAG-1 peptide in 1:10 ratio for 48 hrs in Millicell Insets. qRT-PCRs were performed using Power SYBR green on the StepOne Plus Applied Biosystems machine. The Young's modulus of the hydrogels was determined using an MFP-3DBIO atomic force microscope (Asylum Research; Santa Barbara, Calif.), with a 4.74 μm diameter bead tippedsilicon nitride cantilever.
# CPCs were clonally expanded and characterized to be >96% Notch1+, >90% c-Kit+, nkx2-5+(nk2 homeobox 5) and gata4+(GATA binding protein 4). CPCs were cultured in 1 or 2% (w/v) SAP hydrogels (1R, 1RS, 1RJ or 2R, 2RS, 2RJ) for 48 h.
Substance,self-assembly into a hydrogel when mixed with peptide hydrogel R [1],self-assemble at physiologic pH and osmolarity [1],Self-Assembly [1],effect of addition of peptide to the SAP on Young's modulus [2],effect of peptide addition on network structure (swelling ratio) [4],also measured
CDDYYYGFGCNKFCRPR [JAG-1],self-assembles into a hydrogel,do not self-assemble,–,–,–,–
H2N-RARADADARARADADA-OH (H-RARADADARARADADA-OH) [unmodified/empty control],–,–,yes,–,–,–
RARADADARARADADA(G7)(JAG-1) (RARADADARARADADAGGGGGGGCDDYYYGFGCNKFCRPR) [RJ],–,–,no,did not alter the Young's modulus,no significant effect,"Notch1 activation (YFP expression) ([3]; 2% w/v hydrogel): maximum Notch1 activation; also recorded: highest levels of Notch1 activation; Notch1 activation (YFP expression) ([3]; further increase to 3% w/v hydrogel): did not promote Notch1 activation; endothelial and smooth muscle gene expression [5]: promotes; Notch1 activation (YFP expression) [6]: significant increase; Notch1 signaling in CPCs ([7]; 1% hydrogels): activates Notch1 signaling; Notch1 signaling in CPCs ([7]; 2% hydrogels): activates Notch1 signaling; endothelial and smooth muscle gene expression ([7]; CPCs in 1% hydrogels): promotes; expression of Hey1 (Notch1 downstream target) ([7]; CPCs in 1 or 2% hydrogels, qPCR): increased expression; cardiac gene expression ([7]; CPCs in 2% hydrogels): promotes"
"RARADADARARADADA(G7)(SCR-1) (RARADADARARADADAGGGGGGGRCGPDCFDNYGRYKYCF) [RS, reference compound]",–,–,no,did not alter the Young's modulus,no significant effect,–
RCGPDCFDNYGRYKYCF [SCR-1],self-assembles into a hydrogel,do not self-assemble,–,–,–,–

# From patent US9840693B2, “Polypeptide hydrogels and uses related thereto” (Emory University, priority 2014, dated 2017)
